Measurements: patent EP4184166A1 (FNCT Biotech, Inc., dated 2023)
Residue numbers refer to the chain shown, from its start. Numbers in names are those of the source. One block for each binder: values may come before it.

Target: T1, SRC (UniProt P12931 2-536, limits assumed)
T1 construct: whole, on cells; Endogenous intracellular protein in cell lysates or stained cells; also called p-SRC (phosphorylated form)
Test: immunoprecipitation with ICAM-1 Tyr512 mutants

binding result: binds
B1: ICAM-1 Y512A mutant (receptor)
chain: QTSVSPSKVILPRGGSVLVTCSTSCDQPKLLGIETPLPKKELLLPGNNRKVYELSNVQEDSQPMCYSNCPDGQSTAKTFLTVYWTPERVELAPLPSWQPVGKNLTLRCQVEGGAPRANLTVVLLRGEKELKREPAVGEPAEVTTTVLVRRDHHGANFSCRTELDLRPQGLELFENTSAPYQLQTFVLPATPPQLVSPRVLEVDTQGTVVCSLDGLFPVSEAQVHLALGDQRLNPTVTYGNDSFSAKASVSVTAEDEGTQRLTCAVILGNQSQETLQTVTIYSFPAPNVILTKPEVSEGTEVTVKCEAHPRAKVTLNGVPAQPLGPRAQLLLKATPEDNGRSFSCSATLEVAGQLIHKNQTRELRVLYGPRLDERDCPGNWTWPENSQQTPMCQAWGNPLPELKCLKDGTFPLPIGESVTVTRDLEGTYLCRARSTQGEVTRKVTVNVLSPRYEIVIITVVAAAVIMGTAGLSTYLYNRQRKIKKARLQQAQKGTPMKPNTQATPP
notes: Mutant expressed in cells for immunoprecipitation

binding result: binds
B2: ICAM-1 Y512D mutant (receptor)
chain: B1 chain with A485D
notes: as for B1
